This data set in a line: label from the status in PepcDB records.

Consider “MMQKPITEIIIVGGGTAGWITAGLLAAEHNVDKGVLAHSPKLNITLIESPDVATIGVGEGTWPSMRSTLSKIGIDENDFIRQCDASFKQGSRFINWCKDPQSNVADSYLHPFSLPHGHQELDLCPYWLPHAEQVSFAEAVCSQQVLTQLGLAPKSIVTAQYHFQNNYGYHLNAAKFSQLLTEHCTQKLGVTHIRDHVSQIINNQHGDIEKLITKQNGEISGQLFIDCTGAKSLLLGEHLQVPFLSQKSVLFNDRALAIQVPYSDANSPIASCTHSTAQPNGWIWDIGLPTRKGVGYVYSSSHTNDIDAQKTLFNYLGVDGAAADKLEPRQLAINPGYRAKCWQNNCIAIGMAAGFIEPLEASALALIEWTASTLAQQLPPNRMVMDTISARVNERYQQHWQQIIDFLKLHYVISQRQEDRYWRDHRESNSIPDSLQAMLELWRYQTPSQQDISYKEALFPAASFQYVLYGMSFNTQLPTHVKPSMQQLAQRLFNDNQQRTQALSKNLPTNRELLDKVAQYGFPKL”, for which the protein production result is “not failed”.
Next, “MMRAWIQLVIAIGVEIVGTSLLKLSSGFKYPLIGIVGMLLYGLAIFSFSRALSKIPLSVGYAIWAGVGTAATGLIGIWAFGEILTGLKTLGFMAIITGVILLNMPAKTTKSTTATPRSARWRTRFNR”: “failed”; “MMRIGLFLLTNLAVLVVAGIILSLFGVGSYHGAGGLNLGNLLVICFVFGMVGSLISLLMSKWMAKKTTGTEIIDPNAPRNQAEAWLLQTVAELSQRAGIQMPEVGIFPSYQSNAFATGWNKNDALVSVSTGLMERMNKDELRAVLAHEIGHVANGDMVTLALIQGVVNAFVMFFARVVGDFIDRNVFGRQDGEAPGMGYFAITIVLDIVFGILASAIVMWFSRHREYRADEAGARLAGKQAMISALLRLQAESEMPDQMPKEMKAFAIAEGKEQGFSLAALFQTHPSIEQRVAALQQLNCP”: “failed”.
As for “MMRVGIIGAGNIGHMHAEAVAACENTLLTGVFDLDRERAQSLARASGTVAFASPDELYKASDGVVVASPNRTHADYAREAVAYGRSVLCEKPMAVSLLQAADMRALAAVAPGVCAVGFNYRYLNVIREARNRIGEGMLGRVVHVDVAFKRASALTRQHFTWRDSAAEGHTSGALGDLGVHLIDMLHHLFRSPVDLASCQVALRTKVAAKGGHAVEVDDHAFVSGRIEGGPSFTLTASKASQPEETGFTLAAMGSRGDLSHDSQDGPVLHLRTGIDWEQVKLLGPSRLDDPRGEVTGWGDSFLDQLHDWAGAVTASQRSGTLADFEDGYQAQQVLQELLRIGGRM”, the entry is “failed”.
For the sequence “MMRVLHISDTHFGTEREPVVHALHALADTLRPDLVVLGGDITQRARRGQFAAARRFIQALQRPVLAVPGNHDIPLFNLAARLFDPYGNYRRALGAVLEPVYEDDRLLAIGVNSTRAARRKNGEVSRTQAQRVAQRLRDARPGQLRVVALHHPVHAMVESDQRNLLIGREFAVPAWVDAGVDLILGGHIHLPYVAPLHGKAGEAGRRAWTVQAGTAVSRRVRGRVPNSVNLIDYAAQADSPACTVQRWDFQTDSGAFVLFGQQVLALNRARG”, the protein production result was “failed”.
As for “MMSDSPQKLGRNEWNAYMDKVKAKDREAFAFVFRFYAPKLKQFAYKHVGNEQVAMEMVQETMATVWQKAHLYDGKKSALSTWIYTIIRNLCFDLLRKQKGKELHIHSDDIWPSEYYPPDMVDHYSPEQDMLKEQVVKFLDILPKNQRDVLQAVYLEELPHQQVAELFDIPLGTVKSRLRLAVEKLRHSMHTEQL”, the entry is “failed”.
On to “MMSEAIIHGIILAFGLIIPLGVQNVFVFNQGASQPNIWRAAPVVLTASICDTLLILIAVQGVSLVLLTFSWLTNSLYIIGFFFLLYMGFVIWRSNPSNDVKQEKSMPLKKQILFAASVSLLNPHAILDTIGVIGTNSIQYIGSEKWAFTLATIIVSWIWFISLALAGKFLKRLDSTGKTILLLNKFSGLIIWGVALYMLKQVIYS”, for which the protein production result is recorded as “failed”.
Next, “MMTETVRTWRHIPQRYNLTGSKCLQCGNVFFPSRIICPECRRKGKLEELKFSGKGRIHSYSVINTPTDEFKDIAPYVVAIVELEEGARVTSQIVDCDPDSIEIGDEVEMVFRKVREEGEDGVISYGFKFKPKT”: “failed”; “MMTLIRITSADDSRLNRLIPLYEESFPESERRKIGQLKRMIENHAPMYFNAIECDGELSGMFVYWDMGDFYYLEHLAVFPEMRNKKIGQQVLDYVAEHLKGVRLLEVEPTEDEMTTRRVNYYRRNGYEVLDKTYVQPSYHALEDACPLWIMGSEDSPRLAEQVERIKEEVYRQQVG”: “not failed”.
Next, “MMWESESDGGVGVGGGGGREYGDGVLSSNKHGGVKTDGFELRGQSWFVATDIPSDLLVKIGDMNFHLHKYPLLSRSGKMNRLIYESRDPDPTILILDDLPGGPEAFELASKFCYGVPVDLTATNISGLRCAAEYLEMTEDLEEGNLIFKTEAFLSYVVLSSWRDSILVLKSCEKLSPWAENLQIVRRCSESIAWKACSNPKGIRWAYTGKAPSPSTTNFAGSSPRWNESKDSSFYCSPSRNTNSQPVPPDWWFEDVSILRIDHFVRVITAIKVKGMRFELLGAVIMHYAGKWLPGLIKEGGVAIAPAMSSAIGGGLGLGGDEMSISCGSNSSGGSSGPDWKGGLHMVLSAGKTNGHQDSVACLAGLGISPKDQRMIVESLISIIPPQKDSVTCSFLLRLLRAANMLKVAPALITELEKRVGMQFEQATLQDLLIPGYNNKGETMYDVDLVQRLLEHFLVQEQTEGSSPSRMSPSPSQSMYADIPRGNNNNGGGGGGNNQNAKMRVARLVDSYLTEVARDRNLPLTKFQVLAEALPESARTCDDGLYRAIDSYLKAHPTLSEHERKRLCRVMDCQKLSMDACMHAAQNERLPLRVVVQVLFSEQVKISNALANTSLKESTTLGEAMGTYQPMIPNRKTLIEATPQSFQEGWAAAKKDINTLKFELETVKTKYVELQNEMEVMQRQFEKTGKVKNTPSSSAWTSGWKKLSKLTKMSGQESHDISSGGEQAGVDHPPPRKPRRWRNSIS”: “failed”.
Next, “MMYFISDTHFYHENIINLNPEVRFKGFEIVILTNLLKVLKPEDTLYHLGDFTWHFNDKNEYLRIWKALPGRKILVMGNHDKDKESLKEYFDEIYDFYKIIEHKGKRILLSHYPAKDPITERYPDRQEMVREIYFKENCDLLIHGHVHWNREGIKCACKDYRIECINANVEWNDYKPISEREIDKLISYEKAKN”: “not failed”; “MNAEHAVTLRAPAADWERSEREARQAAAYVAAFVGVPAVVAAAAALALFALTALVLLAPLVACVLTWAAWRYGRPERRGARRA”: “failed”.
In the case of “MNAIRYTKRECKDEKKITEFLNKARTGFLGLSTNDQPYVIPLNFVWHNHAIYFHGASEGRKIKMIEANPEVCFTICEDLGTIVSPVPAHTDTAYMSVIIFGTIEPVSAIEEGTEAMQQMLDKYVPGYYHSPLAASHVEKYRSSLGSRTAIYKISCRERTAKVNEPIESLKFYPGRNVSVDKDSR”, the protein production result was “not failed”.
Next, “MNAKEILVHSLRLLENGDARGWCDLFHPEGVLEFPYAPPGWKTRFEGRETIWAHMRLFPEHLTVRFTDVQFYETADPDLAIGEFHGDGVATVSGGKLAQDYISVLRTRDGQILLYRDFWNPLRHLEALGGVEAAAKIVQGA”: “not failed”.
As for “MNAKRWVALGIVFALLIVSALAKFTSSQIASTEESSPTFVESLFADTGELTETVIEEGGDDTIAVLSVDGTIQDTGDSGSLFGDAGYDHSFFMQQLEQVRNDDYIQGVLLYVNSPGGGVMESAQIRDKILQIQKERNIPFYVSMGSMAASGGYYISAPADKIFASKETLTGSLGVIMQGYDYSELMKKLGVSDNTIKSGEYKDIMSGTRPMTEDEKKIMQSMIDDSYNEFVKVVAKGRGMSAEKVRKIADGRIYDGRQAKENGLIDEFGYQEDALEALKKEQGLADATVIQYDVPEDFSSLFSVAAQKISGQNADISQLIKLTGTLKAPRMMYLYGE”, the entry is “failed”; as for “MNAPGLAIEGLGVAYGARTVIAGLSLGPLPHGTLTALLGPNGSGKSTLLKAVAGLLPARGGAIALDGQRLDQADLAQRAQQVAYLPQGLPADVHLRVFESVLVAARAHGGEAAGQIGPPAIAALLERLGIGHLALQFLDELSGGQKQLVGLAQALIRRPRVLLLDEPLSALDPNYQFHVMDLLRQETRDHGLITIAALHDINIALRHADQALLIRAGELAAAGEPAAVIDAPMLARVYGIQARVERCSRGHPHVLVDGVAGPVR”, “failed”.
As for “MNAPTVFESFSPDSGGVKTQLIIRGQNFGTDTAYLKVTVNNKRAAIVGVADDVIYAIVPARADTGYVRLFVGKDDNVEEYASQTKFIYQFKRNVTTLMGRQGQSGRDDGPYAECKLQRPWFALADKDGALFFIDEGRGQNKNGALRRAQEGWVETLVQNSSGPFQSPTCLAFNPKQDTLYISNMSYGSDIKTSFNILYVTREGGFMDVKGLCKFEKAETQGLAVHPQTGEIFFCNKSGGYIYRFNGPDYEDYEPLFQINRADKIDTRMVFNPEGTALFVVVCNRHCIYKVPYNALTHTFGEPELFAGGWDESGYVNGSGVTARFDNPRQPAFDQDGNMFVPEYGRHTIRKITPTGEVSLYAGLPGQAGFTDGLPEKARFNKPECVTVYLDNSLYVADRDNHLIRRVTVELEHHHHHH”, the entry is “failed”; as for “MNAYSQSLAPANTPLRETFSLDGTWEFRHETDRAWRHAKVPAHWQACFEDLAVSFGSATYRRTFTLPAEWSAREIAIRFGAVSDLATVSINGTEIGRHEGGYLPFEFVIPPALLKAENTVEVLACLPDAYRDESGADFAEIPHGKQSWYGPQGGIWQSVLIEARDPAHISSLRLDPIWPEARLDLKARFASMVAGSLKIEIIGPQGMPVFTGNIPAAGNTLDHSIQLDSVAPWSPDSPNLYTITTILSADGVEIDSRQESFGFRRFEAKDGFLHLNGKPLYLRAALDQDYYPDGFGAPPSLDLLEDQLRKAKAMGLNCLRCHIKVPDPRYYEVADRLGMLIWSEIPNIETFTPASAERLRTTMEGILARDGNHPSIVIWTLINEDWGTRLREAAEQRQWISDMVDWLRVEDPLRLVVDNSACFPNVHVKTDINDYHFYRTAVDRREEWDTLCREFAGNADWTFSTEKEAVRTRKEPLVLSEFGVWGLPDPARLREKNGRDPWWMAYGATWADGTALPQGIEARFRELALEKVFGDLGRFIEKVQWYQYMNLKYEIEVIRTHAPIGGYVITELTDVHWEGNGLMDMARNPRVFAKALPAVNSDIVIAPGAARHAVYEGQTASFDIKVSSGGTALPEGSRLVWEFGAEKGEIPLPAMAPMQVHNAPITTTADAVPVPAIQKARFQVVSPDGSVLSQNFETLAVYGKRDALPPIRFASNDDGISERLSALGHVSVSPHEADVFITKDIDADRVEAIHSGQRVLQIVDKDPGRLRDDAPPRDGPMSIEIDPGAGGMVSGPYFSFPGYNLVNRHKSIWRGDWVGNFSWLRRDGVFAHVPGGPLFDLSFTGVAPHQVMTGLRPWEFQGRVYAGVVIGWVHKPAAFIIEKRLGRGKLVATTFRLHQEAPDVDPLATALYDGLFALATRP”, “failed”; as for “MNAYYIQDRLEAQSWARHYQQIAREEKEAELADDMEKGLPQHLFESLCIDHLQRHGASKKAITRAFDDDVEFQERMAEHIRYIVETIAHHQADIDSEV”, “failed”.
As to “MNCIPQYYKNRVCLNVLAGSIKNAKEVYDACDGHVLIGVLSKNYSTVEAAIEDMKKYSKEIDNAISVGLGAGDPNQSNMVSQISKELQPQHINQVFTGVATSRALLGQNYSIINGLVSPTGKPGFVKISTGPLSSKEKDGIVPIETAIAMMKDMGGSSIKFFPMGGLKTKDEYIEVAKACAKHNFYLEPTGGIDLDNFKEIVQIALDAGVEKVIPHVYTSIIDKETGETKVEDIGVLYKIMKELLG”, the protein production result is “not failed”.
